In assay [1] the target is human MSLN on OVCAR3 tumor cells (human, UniProt Q13421 296-598). Nature of the assay: FACS, OVCAR3 cells. In general terms: In flow cytometry, cells or beads pass a laser one at a time.
In assay [2] the target is T1, human MSLN-R3 on HEK293T-hMSLN-R3 recombinant cells (human, UniProt Q13421 487-606).
T1 construct: the C-terminal limit is uncertain; also called human MSLN-R3 membrane protein
Nature of the assay: FACS, HEK293T-hMSLN-R3 cells.

Assay [3] deals with T2, monkey MSLN on HEK293T-monkey MSLN recombinant cells (monkey).
T2 construct: Full-length precursor as transfected; processing on the cell is not described; also called HEK293-monkey MSLN
T2 chain: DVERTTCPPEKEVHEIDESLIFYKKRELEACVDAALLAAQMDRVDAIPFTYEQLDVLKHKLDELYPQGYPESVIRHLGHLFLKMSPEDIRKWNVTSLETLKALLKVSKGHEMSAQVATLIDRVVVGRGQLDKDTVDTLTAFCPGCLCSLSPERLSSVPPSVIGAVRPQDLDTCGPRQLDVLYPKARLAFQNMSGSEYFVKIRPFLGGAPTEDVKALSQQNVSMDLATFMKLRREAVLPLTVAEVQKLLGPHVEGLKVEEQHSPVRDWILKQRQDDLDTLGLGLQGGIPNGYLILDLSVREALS
Nature of the assay: FACS, HEK293T-monkey MSLN cells.

The target of assay [4] is T1, human MSLN-R3 on HEK293T-hMSLN-R3 …. The assay is described as follows: FACS, HEK293T-hMSLN-R3 cells. The source holds these as a separate data set.
Assay [5] addresses T3, human MSLN-R3 protein (human, UniProt Q13421 487-598).
T3 construct: also called hMSLN-R3
The assay is described as follows: ELISA, MSLN-R3 coated, antibody 1 nM. In general terms: An ELISA detects its analyte on a solid surface through an enzyme-linked reagent.

Assay [6] deals with T3, human MSLN-R3 protein. The assay is described as follows: ELISA, MSLN-R3 coated, antibody 10 nM.
Assay [7] deals with T3, human MSLN-R3 protein. The assay is described as follows: ELISA, MSLN-R3 coated, antibody 0.1 nM.
In assay [8] the target is T3, human MSLN-R3 protein. Nature of the assay: ELISA, MSLN-R3 coated, antibody 100 nM.
Assay [9] deals with T3, human MSLN-R3 protein. Nature of the assay: ELISA, MSLN-R3 coated, antibody 0.01 nM.
The target of assay [10] is T3, human MSLN-R3 protein. Nature of the assay: ELISA, MSLN-R3 coated, antibody 0.001 nM.
Assay [11] has as its target T3, human MSLN-R3 protein. The assay is described as follows: ELISA, MSLN-R3 coated, antibody 0.0001 nM.
For assay [12], the target named is T1, human MSLN-R3 on HEK293T-hMSLN-R3 …. The assay is described as follows: FACS, HEK293T-hMSLN-R3 cells. The source holds these as a separate data set.
The target is the same in assay [13]. Nature of the assay: FACS, HEK293T-hMSLN-R3 cells. This is another data set of the same source.
Assay [14] shares this target. Nature of the assay: FACS, HEK293T-hMSLN-R3 cells. The source holds these as a separate data set.
Assay [15] addresses T4, human MSLN-FL-his protein (human, UniProt Q13421 296-580).
T4 construct: made in HEK293E cells, purified on nickel column; also called hMSLN-FL-his; human MSLN full-length protein; not shown: His tag
The assay is described as follows: competitive ELISA; row F7.2.3.

In assay [16] the target is T4, human MSLN-FL-his protein. The assay is described as follows: competitive ELISA; row Tab021.
The target of assay [17] is T4, human MSLN-FL-his protein. Nature of the assay: competitive ELISA; row Tab142.
The target in assay [18] is T4, human MSLN-FL-his protein. The assay is described as follows: competitive ELISA; row F7.18.10.
The target of assay [19] is T4, human MSLN-FL-his protein. The assay is described as follows: SPR (Biacore), antibody captured on Protein A chip.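 Further: flow cell at 25 °C, antigen injected for 240 s at five concentrations from 200 nM downward, dissociation followed up to 600 s, double-referenced, fitted with Langmuir 1:1 model.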 Background: SPR reads the build-up and loss of mass on a sensor chip optically.
For assay [20], the target named is T5, human MSLN-R2-his protein (human, UniProt Q13421 391-486).
T5 construct: also called hMSLN-R2-his; not shown: His tag
T5 sequence (Q13421 other isoform, or with tags, fused parts or gaps): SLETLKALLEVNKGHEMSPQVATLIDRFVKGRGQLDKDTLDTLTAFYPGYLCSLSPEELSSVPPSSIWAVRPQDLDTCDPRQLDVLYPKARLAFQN
The assay is described as follows: ELISA; antibody 1 nM.

The target of assay [21] is T6, human MSLN-R3-his protein (human, UniProt Q13421 487-598).
T6 construct: also called hMSLN-R3-his; not shown: His tag
T6 sequence (Q13421 495-606): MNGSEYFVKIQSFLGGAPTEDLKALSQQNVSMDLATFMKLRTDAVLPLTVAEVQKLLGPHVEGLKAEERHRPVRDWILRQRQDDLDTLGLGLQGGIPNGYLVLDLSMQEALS
The assay is described as follows: ELISA; antibody 1 nM.

Assay [22] deals with T5, human MSLN-R2-his protein. Nature of the assay: ELISA; antibody 1 nM. The source holds these as a separate data set.
For assay [23], the target named is T6, human MSLN-R3-his protein. The assay is described as follows: ELISA; antibody 1 nM. This is another data set of the same source.
In assay [24] the target is T5, human MSLN-R2-his protein. Nature of the assay: ELISA; antibody 10 nM.
Assay [25] deals with T6, human MSLN-R3-his protein. Nature of the assay: ELISA; antibody 10 nM.
In assay [26] the target is T5, human MSLN-R2-his protein. The assay is described as follows: ELISA; antibody 0.1 nM.
For assay [27], the target named is T5, human MSLN-R2-his protein. Nature of the assay: ELISA; antibody 100 nM.
Assay [28] concerns the target T6, human MSLN-R3-his protein. The assay is described as follows: ELISA; antibody 0.1 nM.
Assay [29] has as its target T6, human MSLN-R3-his protein. The assay is described as follows: ELISA; antibody 100 nM.
Assay [30] has as its target T5, human MSLN-R2-his protein. The assay is described as follows: ELISA; antibody 0.01 nM.
For assay [31], the target named is T6, human MSLN-R3-his protein. The assay is described as follows: ELISA; antibody 0.01 nM.
The target of assay [32] is T5, human MSLN-R2-his protein. The assay is described as follows: ELISA; antibody 0.001 nM.
The target in assay [33] is T6, human MSLN-R3-his protein. The assay is described as follows: ELISA; antibody 0.001 nM.
Assay [34] addresses T5, human MSLN-R2-his protein. The assay is described as follows: ELISA; antibody 0.0001 nM.
The target of assay [35] is T6, human MSLN-R3-his protein. The assay is described as follows: ELISA; antibody 0.0001 nM.
For assay [36], the target named is T5, human MSLN-R2-his protein. The assay is described as follows: ELISA; antibody 0 nM (blank).
Assay [37] has as its target T6, human MSLN-R3-his protein. Nature of the assay: ELISA; antibody 0 nM (blank).

Where two headings read alike, the source gives them in different places.

T1 sequence (Q13421 495-614): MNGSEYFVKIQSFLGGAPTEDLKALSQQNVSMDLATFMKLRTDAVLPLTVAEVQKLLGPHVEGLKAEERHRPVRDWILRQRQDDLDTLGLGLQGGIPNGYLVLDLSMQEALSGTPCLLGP
T3 sequence (Q13421 495-606): as the sequence (Q13421 495-606) above
T4 sequence (Q13421 other isoform, or with tags, fused parts or gaps): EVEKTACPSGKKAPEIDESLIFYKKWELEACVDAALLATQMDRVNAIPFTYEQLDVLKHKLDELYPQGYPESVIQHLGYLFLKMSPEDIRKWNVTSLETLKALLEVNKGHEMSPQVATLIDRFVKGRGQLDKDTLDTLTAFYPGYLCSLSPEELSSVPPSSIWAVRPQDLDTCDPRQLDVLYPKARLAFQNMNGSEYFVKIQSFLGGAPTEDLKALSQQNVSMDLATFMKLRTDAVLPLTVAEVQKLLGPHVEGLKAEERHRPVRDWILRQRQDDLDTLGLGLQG
human MSLN on OVCAR3 tumor cells, sequence (Q13421 other isoform, or with tags, fused parts or gaps): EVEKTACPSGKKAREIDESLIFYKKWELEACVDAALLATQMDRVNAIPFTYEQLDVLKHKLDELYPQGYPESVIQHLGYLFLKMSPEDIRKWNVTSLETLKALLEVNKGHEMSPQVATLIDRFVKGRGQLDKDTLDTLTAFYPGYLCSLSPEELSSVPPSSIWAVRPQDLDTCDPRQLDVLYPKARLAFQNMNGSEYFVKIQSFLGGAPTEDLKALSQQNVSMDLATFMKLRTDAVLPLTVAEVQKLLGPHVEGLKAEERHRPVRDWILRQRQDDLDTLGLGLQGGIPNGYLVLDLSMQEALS

B1: F7.44.20-VL-VH (scFv)
chain: QIVLTQSPALMSASPGEKVTLTCSASSSVISSYLSWYQQKPGSSPKLLIYRTSNLASGVPARFSGSGSGTSYSLTISSMEAEDAASYFCHQWSSFPYTFGGGTKLEIKGGGGSGGGGSGGGGSEVQLQQSGPELVKPGASVKIPCKASGYTFTDYNMDWVKQSHGKSLEWIGDINPSTGGTIYNQKFNGKATLTEDKSASTVYMEFRSLTSDDTAVYYCARRRIGTGYFDVWGTGTTVTVSS
For the molecule B1, the results for the EC50 in assay [1], in assay [2] and in [3] were 1.09 nM, 0.48 nM and 2.97 nM, respectively. Besides, the Maximum_MFI in assay [1] came out at 2920 MFI; in assay [2], 1850 MFI; in assay [3] it was 11100 MFI.

B2: F3.38.10-L2H3a (scFv, not shown: small tags and cut ends)
scFv: DIVMTQSPDSLAVSLGERATINCRSSQSLIHSDGNTYLQWYQQKPGQSPKLLIYKVSNRFSGVPDRFSGSGSGTDFTLTISSLQAEDVAVYYCSQTTHVPFTFGQGTKLEIKGGGGSGGGGSGGGGSEVQLVQSGAEVKKPGASVKVSCKASGYIFTDYYMNWVRQAPGQRLEWMGVINPKQGVISHNQKFKGRVTITVDKSANTAYMELSSLRSEDTAVYYCANYGSRFYAMDYWGQGTTVTVSS
notes: also called S009-F3.38.10 humanized antibody VL2 + VH3a
Turning to B2, the 50% effective concentration (EC50) in assay [4] is 166 nM. For the same molecule, the Maximum_MFI in [4] came out at 795 MFI. In addition, the OD450 nm is 0.12 OD with human MSLN-R3 protein [5]; 0.72 OD with human MSLN-R3 protein [6]; 0.06 OD with human MSLN-R3 protein [7]; 1.88 OD in the assay with human MSLN-R3 protein [8]; 0.05 OD in the assay with human MSLN-R3 protein [9]; 0.05 OD with human MSLN-R3 protein [10]. For the same molecule, the OD450 nm with human MSLN-R3 protein [11] is 0.05 OD.

B3: Tab111 (scFv, not shown: small tags and cut ends)
scFv: DVVMTQTPASVSEPVGGTVTIKCQASQRISSYLSWYQQKPGQRPKLLIFGASTLASGVPSRFKGSGSGTEYTLTISDLECADAATYYCQSYAYFDSNNWHAFGGGTEVVVGGGGSGGGGSGGGGSQQQLEESGGGLVKPEGSLTLTCKASGFDLGFYFYACWVRQAPGKGLEWIACIYTAGSGSTYYASWAKGRFTISKASSTTVTLQMTSLAAADTATYFCARSTANTRSTYYLNLWGPGTLVTVSS
notes: also called YP218 VL-(G4S)3-VH-his antibody; positive control
With B3, the concentration for a half-maximal effect (EC50) in assay [12] worked out at 1.22 nM; in [2], 0.76 nM; in [13] it was 0.76 nM; in assay [14], 1.6 nM; in [4], 30.2 nM. In addition, the Maximum_MFI in assay [12] stood at 4970 MFI; in [2], 2120 MFI; in assay [13] it was 2120 MFI; in [14], 3070 MFI; in [4], 777 MFI. The OD450 nm stood at 0.25 OD with human MSLN-R3 protein [5]; 1.05 OD with human MSLN-R3 protein [6]; 0.07 OD with human MSLN-R3 protein [7]; 1.89 OD with human MSLN-R3 protein [8]; 0.05 OD with human MSLN-R3 protein [9]; 0.05 OD with human MSLN-R3 protein [10]. The OD450 nm with human MSLN-R3 protein [11] is 0.05 OD.

B4: S009-F7.2.3 (antibody, human IgG1, kappa, V domains shown)
VH: ELQLVESGGDLVKPGGSLKLSCAASGFTFSSNGMSWLRQTPDKRLEWVATISSGGRYTYYPDSVKGRFTISRDNAKNTLYLQMSSLKSEDTAMYYCARRGIYDYFDCWGQGTTLTVSS
VL: DIQMTQSPASLSISVGETVTITCRASENIHSSLAWYQQKQGKSPQLLVYAATNLADGVPSRFSGSGSGSQYSLKINSLQSEDFGTYYCQHFWGTPWTFGGGTKLDIKR
notes: human-murine chimeric antibody, human IgG1/kappa constant regions
On to B4, for which the competition rate in assay [15] was 93.3%; in [16] it was -3.83%; in [17], 3.48%; in assay [18], 54.1%. Besides, in assay [19], the dissociation constant (Kd) was 13.2 nM. The same molecule gave a koff in assay [19] of 0.00851 s⁻¹. Besides, in assay [19], the on-rate constant (kon) stood at 643000 M⁻¹ s⁻¹.

B5: Tab106 (YP218, hIgG1) (antibody, V domains shown)
VH: QQQLEESGGGLVKPEGSLTLTCKASGFDLGFYFYACWVRQAPGKGLEWIACIYTAGSGSTYYASWAKGRFTISKASSTTVTLQMTSLAAADTATYFCARSTANTRSTYYLNLWGPGTLVTVSS
VL: DVVMTQTPASVSEPVGGTVTIKCQASQRISSYLSWYQQKPGQRPKLLIFGASTLASGVPSRFKGSGSGTEYTLTISDLECADAATYYCQSYAYFDSNNWHAFGGGTEVVVRT
notes: Control antibody; VH and VL recombined into human IgG1 CH and CL expression vectors; also called YP218 human IgG1 antibody; anti-human MSLN-R3 antibody
Take B5: the OD450 nm in [20] was determined as 0.05; in [21], 0.62; in [22] it was 0.05; in [23] it was 0.62; in [24], 0.11; in assay [25] it was 1.75. In addition, the OD450 nm in assay [26] was 0.05; in assay [27], 0.7; in [28] it was 0.12; in assay [29], 2.29; in [30], 0.04; in assay [31], 0.06. In addition, the OD450 nm was 0.04 in assay [32]; 0.05 in assay [33]; 0.04 in assay [34]; 0.05 in [35]; 0.05 in assay [36]; 0.05 in [37].

What is called EC50 is the concentration that produces a half-maximal response. In general, Kd refers to a measure of binding affinity in units of concentration. For orientation: koff means a measure of how fast the partners let go of each other. As usually defined, the kon is a measure of how fast the partners come together.

Values taken from patent US20250250357A1 (NANJING ZAIMING PHARMACEUTICAL, published 2025).
